This note sets out measurements from patent US20160068605A1 (Janssen / Centocor, published 2016).

One may read the Kd as the constant that tells how readily two partners part at equilibrium. By koff is commonly meant the first-order rate constant of dissociation. What is called kon is the rate constant with which the complex forms.

Assay [1] concerns the target T1, Recombinant human CD123 SP2 ECD protein (human, UniProt P26951 101-303).
T1 construct: also called rhCD123 SP2; CD123 ECD SP2
T1 sequence: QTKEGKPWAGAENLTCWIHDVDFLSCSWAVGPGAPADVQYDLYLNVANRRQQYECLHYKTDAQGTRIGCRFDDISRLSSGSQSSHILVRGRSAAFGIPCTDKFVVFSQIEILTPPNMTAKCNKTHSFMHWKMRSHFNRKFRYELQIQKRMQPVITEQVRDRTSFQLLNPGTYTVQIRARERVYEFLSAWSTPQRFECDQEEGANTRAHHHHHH
Nature of the assay: SPR ProteOn, captured mAb.

The target in assay [2] is T2, Recombinant human CD123 SP1 ECD-His tag protein (human, UniProt P26951 20-305).
T2 construct: bought from R&D Systems (#301-R3/CF); biotinylated for some assays; also called rhCD123 SP1; huCD123 ECD SP1
T2 sequence: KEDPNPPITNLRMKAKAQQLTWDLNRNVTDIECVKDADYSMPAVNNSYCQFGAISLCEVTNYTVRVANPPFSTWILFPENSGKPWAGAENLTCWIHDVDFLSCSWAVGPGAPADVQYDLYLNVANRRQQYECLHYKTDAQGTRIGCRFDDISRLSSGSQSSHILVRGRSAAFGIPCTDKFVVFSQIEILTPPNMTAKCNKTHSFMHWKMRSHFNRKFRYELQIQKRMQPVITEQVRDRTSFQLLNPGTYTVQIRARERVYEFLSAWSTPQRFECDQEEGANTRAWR
As to the kind of experiment: SPR ProteOn, captured mAb.

Assay [3] has as its target T1, Recombinant human CD123 SP2 ECD protein. Nature of the assay: SPR Biacore 3000, captured mAb. Here is the method:
(§1) Kinetic studies were performed at 25° C. using a Biacore 3000 (BIAcore, Inc., now part of GE Healthcare). […] Sheep anti-Human Fd specific antibody (The binding site Prod # PC075) was covalently attached to two flow cells (normally 3 and 4) of the carboxymethyl dextran coated gold surfaces (CM-5 Chip, Biacore). The carboxymethyl groups of dextran were activated with N-Ethyl-N′-(3-Dimethylaminopropyl)carbodiimide (EDC) and N-hydroxysuccinimide (NHS). The antibodies were coupled at pH 4.5 in 10 mM sodium acetate. Any remaining reactive sites on the surface were blocked by reaction with ethanolamine. […] Association data was collected for 2 min followed by 10 min of dissociation. The surface was regenerated with 30 μL of 100 mM H3PO4 100 μL/min. All samples were prepared in D-PBS containing 3 mM EDTA and 0.005% surfactant P20. Data reported is the difference in SPR signal between the flow cell containing the captured antibody or Fab and a reference cell without captured antibody or Fab. Additional instrumental contributions to the signal were removed by subtraction of the data from the blank injection from the reference-subtracted signal. Data were performed in triplicate and analyzed by fitting association and dissociation phases at all concentrations (global fit) with a 1:1 binding model using the BIAevaluation software (BIAcore, Inc.). […] Data presented is an average.
(In SPR one partner is held on a chip, and binding of the other changes the refractive index at the surface.)

The target of assay [4] is T2, Recombinant human CD123 SP1 ECD-His tag …. As to the kind of experiment: SPR Biacore 3000, captured mAb. Here is the method: as §1
For assay [5], the target named is T3, human CD123 SP2 ECD displayed on pDisplay-transfected cells (human, UniProt P26951 101-305).
T3 construct: ECD anchored on the surface of stably transfected HEK293 cells; also called hCD123 SP2 cells; pDisplay CD123SP2
T3 sequence: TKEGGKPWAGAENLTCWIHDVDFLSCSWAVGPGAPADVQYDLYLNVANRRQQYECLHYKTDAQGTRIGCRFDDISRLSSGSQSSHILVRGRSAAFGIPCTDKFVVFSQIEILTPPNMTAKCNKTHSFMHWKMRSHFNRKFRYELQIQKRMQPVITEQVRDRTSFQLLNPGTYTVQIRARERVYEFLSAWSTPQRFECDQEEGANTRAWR
As to the kind of experiment: MSD-CAT on pDisplay cells. As to the method:
(§2) The MSD-CAT was developed in-house as a label-free method to determine affinity using intact cells in a high throughput format. […] Cell lines used were human pDisplay CD123SP1 and pDisplay CD123SP2. […] These samples were prepared in DMEM Glutamax medium containing 0.05% Azide, 1% BSA, 3 mM EDTA. […] After equilibration the plate was centrifuged for 5 minutes ˜1000 rpm and free anti-CD3 detected on the supernatant. […] The assay buffer was removed without washing and 50 uL/well of 0.7 ug/mL of biotinylated antigen in assay buffer were added to MSD plates and incubated overnight (˜16 hours at 4° C.).

For assay [6], the target named is T1, Recombinant human CD123 SP2 ECD protein. Nature of the assay: SPR Biacore T200, captured antibody. As to the method:
(§3) Kinetic studies were performed at 25° C. using a Biacore T200 (Biacore, Inc., now part of GE Healthcare). […] The carboxymethyl groups of dextran were activated with N-Ethyl-N′-(3-Dimethylaminopropyl)carbodiimide (EDC) and N-hydroxysuccinimide (NHS). The anti-Fc antibody was coupled at pH 4.5 in 10 mM sodium acetate. Any remaining reactive sites on the surface were blocked by reaction with ethanolamine. […] 40-70 RU of antibody were captured. […] Association data was collected for 2 min followed by 10 min of dissociation. The surface was regenerated with 30 μL of 100 mM H3PO4 100 μL/min, followed by 50 mM NaOH. The samples for kinetic analysis were prepared in PBS-based buffer (D-PBS containing 3 mM EDTA and 0.005% surfactant P20). Data reported is the difference in SPR signal between the flow cell containing the captured antibody and a reference cell without captured antibody. Additional instrumental contributions to the signal were removed by subtraction of the data from the blank injection from the reference-subtracted signal. Data were analyzed by fitting association and dissociation phases at all concentrations (global fit) with a 1:1 binding model using the BIAevaluation software (BIAcore, Inc.).

In assay [7] the target is T2, Recombinant human CD123 SP1 ECD-His tag …. Nature of the assay: SPR Biacore T200, captured antibody. Here is the method: as §3
The target of assay [8] is T4, cell-surface CD3 epsilon on primary human T cells (human, UniProt P07766 23-207).
T4 construct: whole, on cells; part of the CD3/TCR complex on the cells
As to the kind of experiment: competition flow cytometry on primary human T cells (Human Donor 10357); competitor displaced: Alexa Fluor 488-labelled CD3B146. The text has this:
(§4) The format involved competition binding using a fixed concentration of labeled anti-CD3 mAb of known affinity and increasing concentrations of unlabeled test Abs (Ashkenazi A et al. PNAS: 88:10535, 1991.).
Background: Flow cytometry measures light scatter and fluorescence of single cells or particles in a stream.

Assay [9] has as its target T4, cell-surface CD3 epsilon on primary …. Nature of the assay: flow cytometry competition with labeled CD3B146 on T cells.
From the text: as §4

The target of assay [10] is T5, cell-surface CD3 epsilon on primary cynomolgus T cells (cynomolgus monkey, UniProt Q95LI5 22-198).
T5 construct: whole, on cells; also called cynomolgus CD3e; Cyno T-cells
The assay is described as above.
From the text: as §4

The target in assay [11] is T6, human CD123 SP1 ECD displayed on pDisplay-transfected cells (human, UniProt P26951 20-305).
T6 construct: ECD anchored on the surface of stably transfected HEK293 cells by the PDGFR transmembrane domain; also called hCD123 SP1 cells; hCD123 cells
T6 sequence: T2 sequence
As to the kind of experiment: MSD-CAT on pDisplay cells. As to the method:
as §2

Numbering of substitutions follows the chain as printed.

T5 sequence (Q95LI5 22-198): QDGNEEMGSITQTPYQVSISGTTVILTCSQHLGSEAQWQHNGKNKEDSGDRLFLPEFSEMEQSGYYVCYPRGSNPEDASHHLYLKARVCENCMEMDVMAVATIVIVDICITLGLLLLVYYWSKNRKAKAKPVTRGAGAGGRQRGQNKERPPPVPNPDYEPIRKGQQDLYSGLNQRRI
T4 sequence (P07766 23-207): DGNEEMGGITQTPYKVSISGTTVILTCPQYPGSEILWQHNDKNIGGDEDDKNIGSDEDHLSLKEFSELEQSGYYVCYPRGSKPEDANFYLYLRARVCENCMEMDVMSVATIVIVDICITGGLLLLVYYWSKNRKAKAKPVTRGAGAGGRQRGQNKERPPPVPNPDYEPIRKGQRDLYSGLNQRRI

B1: I3RB2 (antibody, IgG1, V domains shown)
VH: EVQLLESGGGLVQPGGSLRLSCAASGFTFSGYWMHWVRQAPGKGLEWVSAIRSDGSSKYYADSVKGRFTISRDNSKNTLYLQMNSLRAEDTAVYYCAKDGVIEDTFDYWGQGTLVTVSS
VL: EIVLTQSPATLSLSPGERATLSCRASQSVSSYLAWYQQKPGQAPRLLIYDASNRATGIPARFSGSGSGTDFTLTISSLEPEDFAVYYCQQRSNWPLTFGQGTKVEIK
notes: IgG1; also called I3RB02; 13RB2
For the molecule B1, the Kd in [1] amounted to 1.85 nM; in assay [2], 4.5 nM; in assay [3], 1.4 nM; in assay [4], 7.7 nM; in assay [5] it was 0.036 nM. Also, the koff came out at 0.00335 s⁻¹ in assay [1], 0.00477 s⁻¹ in [2] and 0.00372 s⁻¹ in assay [4]. The kon in [1] is 1.81e+06 M⁻¹ s⁻¹; in assay [2], 1.06e+06 M⁻¹ s⁻¹; in assay [4] it was 481000 M⁻¹ s⁻¹.

B2: bispecific antibody 9958 Ab (bispecific antibody, human IgG4 S228P, kappa, lambda, F234A L235A)
heavy 1: EVQLVESGGGLVQPGGSLKLSCAASGFTFNTYAMNWVRQASGKGLEWVGRIRSKYNAYATYYAASVKGRFTISRDDSKNTAYLQMNSLKTEDTAVYYCTRHGNFGNSYVSWFAYWGQGTLVTVSSASTKGPSVFPLAPCSRSTSESTAALGCLVKDYFPEPVTVSWNSGALTSGVHTFPAVLQSSGLYSLSSVVTVPSSSLGTKTYTCNVDHKPSNTKVDKRVESKYGPPCPPCPAPEAAGGPSVFLFPPKPKDTLMISRTPEVTCVVVDVSQEDPEVQFNWYVDGVEVHNAKTKPREEQFNSTYRVVSVLTVLHQDWLNGKEYKCKVSNKGLPSSIEKTISKAKGQPREPQVYTLPPSQEEMTKNQVSLTCLVKGFYPSDIAVEWESNGQPENNYKTTPPVLDSDGSFLLYSKLTVDKSRWQEGNVFSCSVMHEALHNHYTQKSLSLSLGK
light 1: QAVVTQEPSLTVSPGGTVTLTCRSSTGAVTTSNYANWVQQKPGQAPRGLIGGTNKRAPGTPARFSGSLLGGKAALTLSGAQPEDEAEYYCALWYSNLWVFGGGTKLTVLGQPKAAPSVTLFPPSSEELQANKATLVCLISDFYPGAVTVAWKADSSPVKAGVETTTPSKQSNNKYAASSYLSLTPEQWKSHRSYSCQVTHEGSTVEKTVAPTECS
heavy 2: not shown
light 2: EIVLTQSPGTLSLSPGERATLSCRASQSVSSSYLAWYQQKPGQAPRLLIYGASSRATGIPDRFSGSGSGTDFTLTISRLEPEDFAVYYCQQDYGFPWTFGQGTKVEIKRTVAAPSVFIFPPSDEQLKSGTASVVCLLNNFYPREAKVQWKVDNALQSGNSQESVTEQDSKDSTYSLSSTLTLSKADYEKHKVYACEVTHQGLSSPVTKSFNRGEC
notes: IgG4-PAA; CD3 arm of CD3B220, CD123 arm of I3RB217 (I3RB18)
Take B2: the Kd in assay [6] is 0.311 nM; in assay [7] it was 1.34 nM; in [9], 43 nM; in assay [10], 29.1 nM; in assay [11], 0.121 nM; in [5], 0.538 nM. Also, the koff in [6] came out at 0.0011 s⁻¹; in assay [7], 0.00079 s⁻¹. In addition, the kon is 3.57e+06 M⁻¹ s⁻¹ in assay [6] and 587000 M⁻¹ s⁻¹ in assay [7]. For the same molecule, the “IC50 (read off the curve)” value in assay [8] was about 80 nM.

B3: bispecific antibody Ab 8747 (bispecific antibody, human IgG4 S228P, kappa, lambda, F234A L235A)
heavy 1: B2 heavy 1 with K19R, S41P, G49A, A57N, T80S, A81L, T99A
light 1: B2 light 1 with A2T, A80V
heavy 2: not shown
light 2: not shown
Regarding B3, the Kd turned out to be 1.63 nM in [6]; 14.3 nM in assay [7]; 9.6 nM in assay [9]; 9.5 nM in [10]; 1.76 nM in assay [11]; 2.21 nM in [5]. The koff in [6] is 0.0052 s⁻¹; in assay [7], 0.0048 s⁻¹. The kon in assay [6] amounted to 3.19e+06 M⁻¹ s⁻¹; in assay [7] it was 337000 M⁻¹ s⁻¹. The “IC50 (read off the curve)” value in [8] is about 20 nM.

B4: bispecific antibody Ab 5466 (bispecific antibody, human IgG4 S228P, kappa, lambda, F234A L235A)
heavy 1: B2 heavy 1
light 1: B2 light 1
heavy 2: not shown
light 2: not shown
Regarding B4, the Kd in assay [6] was 1.69 nM; in [7], 13.7 nM; in [9], 27.9 nM; in assay [10], 25.3 nM; in [11], 2.43 nM; in assay [5] it was 1.72 nM. Moreover, the koff in [6] was found to be 0.0049 s⁻¹; in [7], 0.0051 s⁻¹. Besides, the kon in assay [6] is 2.88e+06 M⁻¹ s⁻¹; in [7] it was 371000 M⁻¹ s⁻¹. Also, the “IC50 (read off the curve)” value in [8] was about 70 nM.

B5: bispecific antibody Ab 7959 (bispecific antibody, human IgG4 S228P, kappa, lambda, F234A L235A)
heavy 1: B2 heavy 1 with K19R, S41P, G49A, A57N, T80S, A81L, T99A
light 1: B2 light 1 with A2T, A80V
heavy 2: not shown
light 2: B2 light 2
notes: IgG4-PAA; CD3 arm of CD3B219, CD123 arm of I3RB217 (I3RB18)
For B5, the Kd in [6] is 0.335 nM; in [7], 1.53 nM; in [9] it was 11 nM; in assay [10], 11.2 nM; in assay [11], 0.149 nM; in [5] it was 0.461 nM. Besides, the koff is 0.0013 s⁻¹ in [6] and 0.00088 s⁻¹ in assay [7]. For the same molecule, the kon came out at 3.78e+06 M⁻¹ s⁻¹ in assay [6] and 579000 M⁻¹ s⁻¹ in assay [7]. Moreover, in assay [8], the “IC50 (read off the curve)” value is about 20 nM.
